We go through eight molecules from publication PMC12368060 (Communications Biology, 2025).

In general, Kd refers to the equilibrium constant for the complex coming apart. One may read the stoichiometry N as the number of molecules, sites or subunits per partner or assembly. By koff is commonly meant the first-order rate constant of dissociation. Broadly, the kon is the rate constant with which the complex forms. Lower therefore signals slow association.

The labels stand for the following.
B1: FITC-Ahx OPTN LIR peptide 169-185 (WT) (peptide)
peptide: {FITC-Ahx}-NSSGSSEDSFVEIRMAE
B2: FITC-Ahx OPTN LIR peptide 169-185 (pS177 M183A) (peptide)
peptide: {FITC-Ahx}-NSSGSSED[pS]FVEIRAAE
B3: FITC-Ahx OPTN LIR peptide 169-185 (S177D) (peptide)
peptide: {FITC-Ahx}-NSSGSSEDDFVEIRMAE
B4: FITC-Ahx OPTN LIR peptide 169-185 (pS177 F178A) (peptide)
peptide: {FITC-Ahx}-NSSGSSED[pS]AVEIRMAE
B5: FITC-Ahx OPTN LIR peptide 169-185 (F178W) (peptide)
peptide: {FITC-Ahx}-NSSGSSEDSWVEIRMAE
B6: FITC-Ahx OPTN LIR peptide 169-185 (pS177 F178W) (peptide)
peptide: {FITC-Ahx}-NSSGSSED[pS]WVEIRMAE
B7: FITC-Ahx OPTN LIR peptide 169-185 (S177E) (peptide)
peptide: {FITC-Ahx}-NSSGSSEDEFVEIRMAE
B8: FITC-Ahx OPTN LIR peptide 169-185 (pS177) (peptide)
peptide: {FITC-Ahx}-NSSGSSED[pS]FVEIRMAE

Square brackets hold non-standard residues; d marks the D form. Ends that are not written are not given here. * marks the point of attachment. FITC = O=C1OC2(c3ccc(O)cc3Oc3cc(O)ccc32)c2ccc(NC(=S)*)cc21; pS = N[C@@H](COP(=O)(O)O)C(=O)O; Ahx = NCCCCCC(=O)O

In the first assay the target is T1, GST-fused LC3B (UniProt Q9GZQ8 1-120). Briefly: microfluidic diffusional sizing.
Take B1: the equilibrium dissociation constant (Kd) turned out to be 67.1 µM and the “stoichiometry N” value was found to be 1.
As to B2, the “stoichiometry N” value came to 1.
As to B3, the Kd amounted to 36.7 µM and the “stoichiometry N” value is 1.
For B4, the “fold increase in Kd against pS177 alone” value was determined as 7 fold.
Regarding B5, binding was put at a Kd of 19.1 µM and the “stoichiometry N” value was 1.
Regarding B6, the “fold increase in binding affinity against pS177 alone” value is 7 fold and the “stoichiometry N” value is 1.
Consider B7, for which the Kd was determined as 40.2 µM and the “stoichiometry N” value was 1.
On to B8, for which the Kd was determined as 14.9 µM and the “stoichiometry N” value was found to be 1.

Another assay concerns the target T1, GST-fused LC3B. The assay is described as follows: SPR.
Molecule B1 had an equilibrium dissociation constant (Kd) of 63.5 µM, a koff of 0.0351 s⁻¹ and a kon of 550 M⁻¹ s⁻¹.
B2 returned a Kd of 36.7 µM.
Still for that read-out and setting: for B4 the value was more than 100 µM.
In the case of B8, the Kd was determined as 21.2 µM, the koff is 0.377 s⁻¹ and the kon is 17800 M⁻¹ s⁻¹.
